How the values were obtained:
[1] = Allometric extrapolation of β-phase half-life from mice and rabbits to humans; settings: 70 Kg human, linear extrapolation from mice and rabbits
Description: Data on in vivo pharmacokinetic parameters obtained from small laboratory mammals (e.g. rodents, dogs, and monkeys) can be extrapolated to humans by interspecies scaling (summarized by Mahmood and Balian, Life Sciences 7: 579-585, 1996 and Clin Pharmacokinet 36:1-11, 1999). A simple allometric approach describes the relationship between bodyweight (W) and a pharmacokinetic parameter of interest (Y) in terms of the power function: Y=aW^b (Equation 4) where a and b are the empirically determined coefficient and exponent of the allometric equation, respectively. […] Further, of the three most important pharmacokinetic parameters (total body clearance, volume of distribution, and t1/2β) typically measured, t1/2β is least well predicted by Equation 4. With these caveats in mind, data presented in Tables 2 and 4 can be used to provide crude estimates of expected t1/2β in humans.
FIG. 10 presents data from Tables 2 and 4 plotted as log [Beta Phase Half-Live] vs log [Body Mass] for unmodified DX-890 (triangles) and mono-PEG30-DX-890 (circles). Linear extrapolations of the experimental data for mice (25 gm) and rabbits (2.5 Kg) to humans (70 Kg) are shown by the solid crosses in the figure. The extrapolated values for β-phase half-lives in humans are ˜5 hours for unmodified DX-890 and ˜14 days for mono-PEG30-DX-890. […]

[2] = Pharmacokinetic study in rabbits: plasma clearance of 125I-labeled protein, SEC of plasma; type: in vivo, New Zealand White rabbits
Experimental: Pharmacokinetic properties of DX-890 and PEG-30-DX-890 (conjugation at pH 7.4) were measured by iodinating the proteins and measuring clearance of the radiolabel from circulation in rabbits. The two DX-890 preparations were iodinated with iodine-125 using the iodogen method. After radiolabeling, the two labeled protein preparations were purified from unbound label by size exclusion chromatography (SEC). Fractions from the SEC column having the highest radioactivity were pooled. The purified, radiolabeled preparations were characterized for specific activity by gamma counting and for purity by SEC using a Superose-12 column equipped with an in-line radiation detector.
New Zealand White rabbits (ca. 2.5 Kg) were used for clearance measurements, with one animal used for each of the two labeled protein preparations. The radiolabeled preparation was injected into the animal via an ear vein. One blood sample was collected per animal per time point with early time points at approximately 0, 2.5, 5, 7, 15, 30, 60, and 90 minutes post injection and later time points at 4, 8, 16, 24, 30, 48, 72, 96, 144, 168, and 192 hours post injection. Samples (about 0.5 mL) were collected into anticoagulant (EDTA) containing tubes. Cells were separated from the plasma fraction by centrifugation. The plasma fraction was divided into two aliquots. One plasma aliquot was stored at −70° C. and the other aliquot was kept at 4° C. for immediate analyse's. Sample analyses included radiation counting for clearance rate determinations and SEC chromatography to test for changes in the size distribution of radiolabeled material in vivo (stability).

[3] = Pharmacokinetic study in mice: plasma clearance of 125I-labeled protein, SEC of plasma; type: in vivo
Experimental: The pharmacokinetics of DX-890 and the PEGylated DX-890 compounds were measured by iodinating the proteins on available tyrosine residues and measuring their clearance in mice.
Samples were radio-iodinated by the indirect method using the IODO-GEN reagent (method from Pierce Chem. Co., and first described by Chizzonite [J Immunol 147, 1548-1556, 1991; J. Immunol 148, 3117-3124, 1992]). Samples were incubated with the ^125I-NaI solution for 9 min at which time tyrosine (10 mg/mL, a saturated solution) was added to quench the reaction. After about 15 min a 5 μl aliquot was removed as a standard for counting.
For each labeling reaction, the ^125I-labeled material (approx. 0.6 mL) was purified using a single 5 mL D-salt 1800 polyacrylamide column (Pierce Chem. Co.). […] Samples were applied in and columns were eluted with a series of 0.3 mL aliquots. Recovery of applied activity in all protein fractions was >75% and the total recovery of applied activity was >90%. The fractions containing peak levels of labeled protein were pooled for animal injections. To prepare the injectate, the pool was diluted with Tris buffer (pH 7.5) so that the 100 μL injection volume contained about 10 μg of labeled material.
Time of injection and time of sampling were recorded. At sacrifice, samples of 0.5 ml were collected into anticoagulant (0.02 ml EDTA). Cells were spun down and separated from plasma, and cells were stored at −20° C. Plasma was divided into two aliquots, one frozen and one stored at 4° C. for immediate analysis. Analysis included gamma counting of all samples. In addition, analysis was performed for two plasma samples (N=2) at each time point, i.e., 0, and 30 minutes, for ^125I-DX-890, and 0, 30 minutes, and 24 h for the ^125I-DX-890-PEG conjugates. A SEC-HPLC Superose-12 column was used with an in-line radiation detector (FIGS. 4-7).
The solid curves through the sets of data plotted in FIG. 3 are four-parameter, least-squares fits of Equation 3 to the data. Table 3 presents the values for % α Phase, α Phase Half-life, % β Phase, and β Phase Half-life extracted from the least squares fits to the in vivo clearance data set obtained for each of the four compounds tested in mice.

[4] = biological target: T1, human neutrophil elastase (HNE) (Homo sapiens, UniProt P08246); settings: description statement; cited from earlier work
T1 sequence (P08246 30-267): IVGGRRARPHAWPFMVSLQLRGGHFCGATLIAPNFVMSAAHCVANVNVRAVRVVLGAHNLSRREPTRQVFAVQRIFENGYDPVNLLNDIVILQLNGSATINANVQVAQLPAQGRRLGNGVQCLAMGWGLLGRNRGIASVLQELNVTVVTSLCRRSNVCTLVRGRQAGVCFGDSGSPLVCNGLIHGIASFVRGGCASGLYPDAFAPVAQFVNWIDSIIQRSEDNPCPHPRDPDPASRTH

[5] = ear vein injection, bi-exponential fit
[6] = tail vein injection, bi-exponential fit

With “DX-890: 56 amino acid Kunitz domain polypeptide derived from ITI-D2, inhibitor of human neutrophil elastase, produced in Pichia pastoris (EACNLPIVRGPCIAFFPRWAFDAVKGKCVLFPYGGCQGNGNKFYSEKECREYCGVP)” the “extrapolated β-phase half-life in humans” value [1] was roughly 5 h, the “in vivo stability, SEC analysis of plasma” value [2] was “relatively rapid association of label with higher molecular weight plasma components” and the “% α” value [2, 5] was 75%. The “% β” value [2, 5] was 25%, the T1/2α [2, 5] was 0.4 min and the T1/2β [2, 5] was 165 min. The “percentage cleared in the β phase” value [3] was “about 15%”, the “α phase half life” value [3] was “about 1 min” and the “β phase half life” value [3] was “about 1 hr”. For the same substance, the “material remaining in circulation” value ([3]; 30 minutes after injection) was “less than 20%”, the α half life ([3]; Table 4 summary) was 1 min and the β half life ([3]; Table 4 summary) was 79 min. The “α Phase Clearance (%)” value [3, 6] was 84%, the “α Phase Half-life” value [3, 6] was 1.0 min and the “β Phase Clearance (%)” value [3, 6] was 16%. For the same substance, the “β Phase Half-life (hr)” value [3, 6] was 1.3 h, the “β Phase Half-life (min)” value [3, 6] was 79 min and the Ki [4] was 4 pM.

Source: patent publication US20070020252A1, “Modified protease inhibitors” (priority 2003, published 2007)
